Data on one substance can be found in patent US20110129412A1.

A word on the Kd: it is the constant that tells how readily two partners part at equilibrium.

For assay [1], the target named is human CD20 (human) (UniProt P11836). In words: cell-based or functional assay.
The target is the same in assay [2]. In words: FACS titration on SB cells expressing CD20, 3 h at 4 C, nonlinear fit of geometric mean fluorescence.

human CD20 (human), sequence (P11836 whole entry): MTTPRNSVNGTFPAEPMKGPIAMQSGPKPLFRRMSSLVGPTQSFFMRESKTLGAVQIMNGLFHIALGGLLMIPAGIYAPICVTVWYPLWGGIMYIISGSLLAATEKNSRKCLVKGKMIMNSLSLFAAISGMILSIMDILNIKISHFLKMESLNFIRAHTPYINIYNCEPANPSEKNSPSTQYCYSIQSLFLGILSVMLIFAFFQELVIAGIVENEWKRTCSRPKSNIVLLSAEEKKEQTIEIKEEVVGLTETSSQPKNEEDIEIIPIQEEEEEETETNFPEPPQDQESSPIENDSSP

With “Rituxan (Rituximab), Genentech (antibody)”, in the assay with human CD20 (human) [1], the % Lysis Daudi 0.001 µg/ml ADCC stood at 33%, the % Lysis Daudi 1 µg/ml ADCC came to 95%, the % Lysis Raji 0.001 µg/ml ADCC is 16% and the % Lysis Raji 1 µg/ml ADCC came to 62%. In the assay with human CD20 (human) [1], this substance displayed a % Lysis Ramos 0.001 µg/ml ADCC of 5%, a % Lysis Ramos 1 µg/ml ADCC of 78%, an EC50 Daudi CDC of 1.56 µg/mL and an EC50 Raji CDC of 0.31 µg/mL. Besides, in the assay with human CD20 (human) [1], the EC50 Ramos Apoptosis Alamar Blue was determined as 0.222 µg/mL, the EC50 Ramos Apoptosis Annexin V was determined as 2.59 µg/mL, the EC50 Ramos Apoptosis Cell Titer Glo amounted to 0.576 µg/mL and the EC50 Ramos Apoptosis WST-1 worked out at 0.0326 µg/mL. In addition, in the assay with human CD20 (human) [1], the EC50 Ramos CDC was 0.43 µg/mL. In addition, in the assay with human CD20 (human) [2], the Kd was determined as 8.1 nM.
